From publication PMC6687821, “Brain-targeted drug delivery by manipulating protein corona functions” (Nature Communications, 2019)

Target: T1, mouse plasma ApoE (mouse (endogenous in BALB/c plasma), UniProt P08226 19-311)
T1 construct: apolipoprotein E, mouse, band of 36 kDa identified by nano-LC-MS/MS; also called apolipoprotein E; source: endogenous, BALB/c mouse plasma (in vitro) or blood of injected BALB/c mice (in vivo)
T1 sequence (looked up): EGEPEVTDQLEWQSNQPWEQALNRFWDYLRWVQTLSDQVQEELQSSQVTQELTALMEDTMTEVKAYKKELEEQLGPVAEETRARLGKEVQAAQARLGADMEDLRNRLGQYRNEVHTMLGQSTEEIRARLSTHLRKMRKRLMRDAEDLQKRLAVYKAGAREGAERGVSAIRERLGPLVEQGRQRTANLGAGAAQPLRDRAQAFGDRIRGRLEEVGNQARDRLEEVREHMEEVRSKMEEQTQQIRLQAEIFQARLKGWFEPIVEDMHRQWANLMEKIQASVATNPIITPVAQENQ
Test: radioligand binding; SP-sLip (100 μL, 10 mg/mL) with mouse plasma (100 μL) at 37 °C for 1 h, then I-125 rhLRP1 (6 μCi, 0.5 μg) for 1 h at 37 °C; pellet at 19k RCF 30 min, three washes with cold PBS, gamma counter; plain sLip as control
Conditions: one partner purified

B1: I-125 radiolabeled recombinant human LRP1 Cluster II Fc Chimera, Human IgG1 (Fc fusion, UniProt Q07954 852-1182, looked up)
chain: PQCQPGEFACANSRCIQERWKCDGDNDCLDNSDEAPALCHQHTCPSDRFKCENNRCIPNRWLCDGDNDCGNSEDESNATCSARTCPPNQFSCASGRCIPISWTCDLDDDCGDRSDESASCAYPTCFPLTQFTCNNGRCININWRCDNDNDCGDNSDEAGCSHSCSSTQFKCNSGRCIPEHWTCDGDNDCGDYSDETHANCTNQATRPPGGCHTDEFQCRLDGLCIPLRWRCDGDTDCMDSSDEKSCEGVTHVCDPSVKFGCKDSARCISKAWVCDGDNDCEDNSDEENCESLACRPPSHPCANNTSVCLPPDKLCDGNDDCGDGSDEGELC
modifications: I-125 radiolabel (residues not stated)
notes: Same bought protein as m6, radiolabeled; the labelling method is not described; also called I^125 radiolabeled rhLRP1; radiolabeled rhLRP1; source: bought: R&D system, then I-125 radiolabeled
- fold of rhLRP1 absorbed on SP-sLip over plain sLip, after preincubation with mouse plasma: 8.4 fold
